This note sets out measurements from US20210063414A1, “METHODS FOR PREVENTING AND/OR TREATING BONE LOSS CONDITIONS BY MODULATING IRISIN” (Dana-Farber Cancer Institute, Inc., priority 2018, published 2021).

Holding throughout (assay): Crosslinking/co-immunoprecipitation/mass spectrometry (TMT quantitative proteomics) to identify irisin receptors
What all share (format): binding

The target of test [1] is T1, MLO-Y4 cell surface proteins (Mus musculus, UniProt G3X9C2).
T1 construct: endogenous in cells; host or cells: MLO-Y4
T1 sequence (G3X9C2 1-266): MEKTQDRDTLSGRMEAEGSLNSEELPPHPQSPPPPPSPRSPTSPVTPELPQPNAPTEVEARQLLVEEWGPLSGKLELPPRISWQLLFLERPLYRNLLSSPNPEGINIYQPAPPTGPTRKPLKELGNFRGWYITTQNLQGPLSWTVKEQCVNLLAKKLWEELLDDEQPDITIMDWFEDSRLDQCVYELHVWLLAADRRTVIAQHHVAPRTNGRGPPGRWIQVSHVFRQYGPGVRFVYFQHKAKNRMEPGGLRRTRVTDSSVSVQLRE
The conditions noted are these: co-precipitated protein Nccrp1 (FBX50_MOUSE). The method, boiled down:
(§1)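 Relative protein abundance came from 6-plex TMT MS3 quantitation on an Orbitrap Fusion Lumos, after in-gel trypsin digestion of Coomassie-stained SDS-PAGE lanes. Input was a Ni-NTA pulldown (250 mM imidazole elution) of lysates from murine MLO-Y4 cells. These cells were treated on ice with His-tagged irisin or adipsin (10 nM, 20 min) in serum-free medium, then crosslinked with 1.5 mM DTSSP for 30 min.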

Test [2] has as its target T2, MLO-Y4 cell surface proteins (Mus musculus, UniProt Q62028).
T2 construct: endogenous in cells; host or cells: MLO-Y4
The conditions noted are these: co-precipitated protein Pla2r1 (PLA2R_MOUSE). The method, boiled down:
as §1

The target in test [3] is T3, MLO-Y4 cell surface proteins (Mus musculus, UniProt Q08189).
T3 construct: endogenous in cells; host or cells: MLO-Y4
T3 sequence (Q08189 1-693): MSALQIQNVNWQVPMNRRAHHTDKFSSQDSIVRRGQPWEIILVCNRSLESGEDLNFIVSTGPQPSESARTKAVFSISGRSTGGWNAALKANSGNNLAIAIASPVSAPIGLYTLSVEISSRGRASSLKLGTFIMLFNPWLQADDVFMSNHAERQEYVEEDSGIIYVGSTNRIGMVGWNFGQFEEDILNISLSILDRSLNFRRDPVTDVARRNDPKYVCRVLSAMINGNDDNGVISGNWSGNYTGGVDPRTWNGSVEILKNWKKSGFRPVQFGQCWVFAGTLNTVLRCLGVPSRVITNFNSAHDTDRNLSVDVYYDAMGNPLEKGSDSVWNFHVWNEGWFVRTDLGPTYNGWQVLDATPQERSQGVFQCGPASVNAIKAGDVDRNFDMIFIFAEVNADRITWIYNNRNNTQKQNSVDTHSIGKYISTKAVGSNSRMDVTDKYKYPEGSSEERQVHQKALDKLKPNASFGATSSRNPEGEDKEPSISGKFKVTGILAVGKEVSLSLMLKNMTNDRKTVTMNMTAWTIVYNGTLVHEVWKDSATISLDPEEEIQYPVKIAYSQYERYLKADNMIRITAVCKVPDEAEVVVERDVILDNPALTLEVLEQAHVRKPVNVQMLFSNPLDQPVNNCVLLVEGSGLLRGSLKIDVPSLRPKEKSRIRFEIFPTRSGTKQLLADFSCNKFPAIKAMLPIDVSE
Particulars: co-precipitated protein Tgm3 (TGM3_MOUSE). The method, boiled down:
as §1

Test [4] has as its target T4, MLO-Y4 cell surface proteins (Mus musculus, UniProt Q9D125).
T4 construct: endogenous in cells; host or cells: MLO-Y4
The conditions noted are these: co-precipitated protein Mrps25 (RT25_MOUSE). The gist of the method: as §1

T2 sequence (Q62028 27-1487): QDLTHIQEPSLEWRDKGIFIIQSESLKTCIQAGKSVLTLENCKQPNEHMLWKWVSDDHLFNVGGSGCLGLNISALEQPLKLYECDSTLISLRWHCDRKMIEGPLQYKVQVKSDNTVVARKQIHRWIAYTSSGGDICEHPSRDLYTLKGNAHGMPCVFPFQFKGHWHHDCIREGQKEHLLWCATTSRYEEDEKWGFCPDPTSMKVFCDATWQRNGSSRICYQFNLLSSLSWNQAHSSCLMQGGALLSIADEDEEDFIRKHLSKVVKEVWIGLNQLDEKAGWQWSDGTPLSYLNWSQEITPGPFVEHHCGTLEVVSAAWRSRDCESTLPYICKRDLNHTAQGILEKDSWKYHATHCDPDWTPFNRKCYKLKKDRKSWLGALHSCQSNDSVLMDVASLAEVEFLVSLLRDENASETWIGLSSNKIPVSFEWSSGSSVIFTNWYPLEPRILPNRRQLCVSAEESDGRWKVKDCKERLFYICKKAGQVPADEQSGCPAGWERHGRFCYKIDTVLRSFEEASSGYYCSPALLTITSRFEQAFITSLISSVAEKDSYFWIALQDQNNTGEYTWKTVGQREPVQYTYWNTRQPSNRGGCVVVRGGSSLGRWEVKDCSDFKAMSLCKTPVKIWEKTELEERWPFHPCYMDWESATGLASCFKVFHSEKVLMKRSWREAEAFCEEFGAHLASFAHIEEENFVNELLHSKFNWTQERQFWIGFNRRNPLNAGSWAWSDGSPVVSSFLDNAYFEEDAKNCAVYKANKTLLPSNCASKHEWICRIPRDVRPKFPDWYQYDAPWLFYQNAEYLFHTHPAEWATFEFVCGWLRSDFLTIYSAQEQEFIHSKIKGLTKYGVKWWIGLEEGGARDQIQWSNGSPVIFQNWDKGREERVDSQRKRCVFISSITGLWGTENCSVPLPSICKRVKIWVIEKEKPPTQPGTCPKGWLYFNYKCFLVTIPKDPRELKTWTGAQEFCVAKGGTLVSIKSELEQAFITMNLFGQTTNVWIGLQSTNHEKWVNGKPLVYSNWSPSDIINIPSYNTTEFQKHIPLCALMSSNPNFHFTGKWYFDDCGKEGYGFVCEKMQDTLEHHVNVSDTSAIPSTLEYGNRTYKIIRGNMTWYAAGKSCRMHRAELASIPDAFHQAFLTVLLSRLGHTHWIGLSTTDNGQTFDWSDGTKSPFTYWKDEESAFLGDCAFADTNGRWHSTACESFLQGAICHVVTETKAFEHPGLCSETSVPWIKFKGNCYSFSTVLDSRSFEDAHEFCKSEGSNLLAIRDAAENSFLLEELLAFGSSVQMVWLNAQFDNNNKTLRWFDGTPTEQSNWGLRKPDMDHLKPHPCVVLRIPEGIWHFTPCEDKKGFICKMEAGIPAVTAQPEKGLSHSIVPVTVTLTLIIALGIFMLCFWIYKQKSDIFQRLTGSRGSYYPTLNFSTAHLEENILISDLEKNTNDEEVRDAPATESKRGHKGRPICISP

B1: irisin: secreted cleaved form of FNDC5; recombinant human/mouse irisin with C-terminal his tag produced in HEK293 cells (protein)
chain: DSPSAPVNVTVRHLKANSAVVSWDVLEDEVVIGFAISQQKKDVRMLRFIQEVNTTTRSCALWDLEEDTEYIVHVQAISIQGQSPASEPVLFKTPREAEKMASKNKDEVTMKE
modifications: left off: small tags and cut ends
notes: secreted cleaved form of FNDC5; recombinant human/mouse irisin with C-terminal his tag produced in HEK293 cells
Take B1: the TMT signal-to-noise ratio in test [1] is reported as 0; in test [2], 142.778; in test [3] it was 45.8379; in test [4], 10.7103. The “irisin/adipsin TMT signal-to-noise ratio” value amounted to 0.000 in test [1], 0.275 in test [2], 0.167 in test [3] and 0.126 in test [4].
